Measurements as given in US20220153863A1 (published 2022).
Residue numbers refer to the chain shown, from its start.

T1: PRAME peptide, amino acids Arg310-Asn331 of PRAME, conjugated to biotin or BSA (UniProt P78395 310-331, conjugated to either biotin or bovine serum albumin (BSA); site not stated)
T1 construct: range 310-331
T1 peptide (looked up): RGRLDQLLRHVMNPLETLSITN

B1: B029_2D4 scFv displayed on phage (monoclonal phage clone) (scFv, V domains shown)
VH: EVQLLESGGGLVQPGGSLRLSCAASGFTFSSYAMSWVRQAPGKGLEWVSAISGSGDSTYYADSVKGRFTISRDNSKNTLYLQMNSLRAEDTAVYYCARDVDSFEGGMDVWGQGTTVTVSS
VL: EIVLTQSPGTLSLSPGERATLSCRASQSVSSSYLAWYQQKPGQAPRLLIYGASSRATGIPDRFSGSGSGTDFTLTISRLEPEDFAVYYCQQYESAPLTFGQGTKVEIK
B2: B029_1A6 scFv displayed on phage (monoclonal phage clone) (scFv, V domains shown)
VH: EVQLLESGGGLVQPGGSLRLSCAASGFTFSNYAMSWVRQAPGKGLEWVSAISGSGGSTYYADSVKGRFTISRDNSKNTLYLQMNSLRAEDTAVYYCARGGLVLSPWGQGTLVTVSS
VL: EIVLTQSPGTLSLSPGERATLSCRASQSVSSNSLAWYQQKPGQAPRLLIYDASSRATGIPDRFSGSGSGTDFTLTISRLEPEDFAVYYCQQYESSPLTFGQGTKVEIK
B3: B029_2H1 scFv displayed on phage (monoclonal phage clone) (scFv, V domains shown)
VH: EVQLLESGGGLVQPGGSLRLSCAASGFTFTDYAMSWVRQAPGKGLEWVSWISGSGGSTKYADSVKGRFTISRDNSKNTLYLQMNSLRAEDTAVYYCAKCYDILTGYSIDYGMDVWGQGTTVTVSS
VL: B2 VL with N32T, S33Y, D51G, E93S, S95A, L97F
B4: B029_1H1 scFv displayed on phage (monoclonal phage clone) (scFv, V domains shown)
VH: EVQLLESGGGLVQPGGSLRLSCAASGFTFSSYAMSWVRQAPGKGLEWVSEIDGEGDSTKYADSVKGRFTISRDNSKNTLYLQMNSLRAEDTAVYYCAKEYYDIFDGTDVWGQGTTVTVSS
VL: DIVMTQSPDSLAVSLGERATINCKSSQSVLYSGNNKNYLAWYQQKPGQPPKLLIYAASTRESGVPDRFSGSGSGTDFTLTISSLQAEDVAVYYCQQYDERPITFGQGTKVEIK
B5: B029_1A7 full-length human IgG1 (antibody, V domains shown)
VH: EVQLLESGGGLVQPGGSLRLSCAASGFTFSSYWMSWVRQAPGKGLEWVSDISGSGGSTYYADSVKGRFTISRDNSKNTLYLQMNSLRAEDTAVYYCASLPDSSGYYHWFDPWGQGTLVTVSS
VL: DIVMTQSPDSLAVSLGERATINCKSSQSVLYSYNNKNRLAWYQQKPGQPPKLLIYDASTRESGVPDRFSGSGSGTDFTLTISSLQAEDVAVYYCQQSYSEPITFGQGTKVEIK
B6: B029_1A7 scFv displayed on phage (monoclonal phage clone) (scFv, V domains shown)
VH: B5 VH
VL: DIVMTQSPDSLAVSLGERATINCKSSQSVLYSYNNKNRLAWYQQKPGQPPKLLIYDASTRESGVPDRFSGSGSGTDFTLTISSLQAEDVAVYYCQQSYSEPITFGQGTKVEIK
B7: B029_1G7 scFv displayed on phage (monoclonal phage clone) (scFv, V domains shown)
VH: EVQLLESGGGLVQPGGSLRLSCAASGFTFTDSAMSWVRQAPGKGLEWVSDIDGSGSGGGTYYADSVKGRFTISRDNSKNTLYLQMNSLRAEDTAVYYCATDRGWGTFDFWGQGTLVTVSS
VL: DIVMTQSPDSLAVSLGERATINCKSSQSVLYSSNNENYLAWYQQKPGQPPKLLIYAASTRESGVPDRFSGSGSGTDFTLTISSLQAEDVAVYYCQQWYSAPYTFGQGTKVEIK

Tests used:
[1] = target: T1, PRAME peptide, amino acids …; experiment: ELISA with monoclonal phage supernatants
Description: 184 PRAME binding phage clones yielded 35 membrane target hits with 6 unique sequences. Clones with unique antibody sequences were chosen for further analysis.

[2] = target: T2, PRAME (Preferentially Expressed Antigen in Melanoma) on PRAME+ cells (human, UniProt P78395 1-509); experiment: flow cytometry, titrated antibody on THP-1 cells
T2 construct: whole, on cells; Endogenous PRAME on the THP-1 human cell line; also called THP-1 cells
Description: MPA1 (Pankov et al., 2017), a rabbit anti-PRAME polyclonal antibody was included as reference for comparison.

T2 sequence (P78395 whole entry): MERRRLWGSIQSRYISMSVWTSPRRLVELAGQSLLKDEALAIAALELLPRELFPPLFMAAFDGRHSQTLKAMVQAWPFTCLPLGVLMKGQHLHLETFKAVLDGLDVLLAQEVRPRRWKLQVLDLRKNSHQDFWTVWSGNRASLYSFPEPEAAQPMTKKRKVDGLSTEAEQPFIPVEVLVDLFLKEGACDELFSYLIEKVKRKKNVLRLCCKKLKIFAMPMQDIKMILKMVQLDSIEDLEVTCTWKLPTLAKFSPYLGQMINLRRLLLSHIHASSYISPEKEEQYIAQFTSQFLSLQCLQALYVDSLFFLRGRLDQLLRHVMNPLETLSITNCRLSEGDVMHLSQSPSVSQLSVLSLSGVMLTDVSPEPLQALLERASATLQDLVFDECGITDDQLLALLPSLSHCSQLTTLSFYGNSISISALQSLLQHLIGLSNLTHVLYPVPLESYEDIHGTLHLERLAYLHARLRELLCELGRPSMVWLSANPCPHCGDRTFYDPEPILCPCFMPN

| Binder | binding result [1] | EC50 [2] |
| --- | --- | --- |
| B1 | binds | – |
| B2 | binds | – |
| B3 | binds | – |
| B4 | binds | – |
| B5 | – | 1.45 nM |
| B6 | binds | – |
| B7 | binds | – |
